The values below come from publication PMC10897367, “Functional and structural asymmetry suggest a unifying principle for catalysis in membrane-bound pyrophosphatases” (EMBO Reports, 2024).

Data set [1] deals with the molecule itself. Nature of the data set: crystal structure; time-resolved cryo-trapping: TmPPase in OGNG crystallised with K4PPi and without Na+, soaked in a Na+ trigger solution for 0-3600 s, flash cooled; molecular replacement with 4AV3.
Data set [2] deals with the molecule itself. Nature of the data set: crystal structure; PaPPase in DM with 2 mM IDP, vapour diffusion, 30-33% PEG 400, 0.1 M MES pH 6.5, 0.05 M LiSO4, 0.05 M NaCl, 20 °C; eight datasets combined, molecular replacement with a 5LZQ-based model.

B1: K+-dependent Na+-pumping membrane-bound pyrophosphatase from Thermotoga maritima (TmPPase), wild type (enzyme, UniProt Q9S5X0 1-726, looked up)
chain: MYVAALFFLIPLVALGFAAANFAAVVRKPEGTERMKEISSYIRSGADSFLAHETKAIFKVAIVIAILLMIFTTWQTGVAFLLGAVMSASAGIVGMKMATRANVRVAEAARTTKKIGPALKVAYQGGSVMGLSVGGFALLGLVLVYLIFGKWMGQVDNLNIYTNWLGINFVPFAMTVSGYALGCSIIAMFDRVGGGVYTKAADMAADLVGKTELNLPEDDPRNPATIADNVGDNVGDVAGLGADLLESFVGAIVSSIILASYMFPIYVQKIGENLVHQVPKETIQALISYPIFFALVGLGCSMLGILYVIVKKPSDNPQRELNISLWTSALLTVVLTAFLTYFYLKDLQGLDVVGFRFGAISPWFSAIIGIFSGILIGFWAEYYTSYRYKPTQFLSKSSIEGTGMVISNGLSLGMKSVFPPTLTLVLGILFADYFAGLYGVAIAALGMLSFVATSVSVDSYGPIADNAGGISEMCELDPEVRKITDHLDAVGNTTAAIGKGFAIGSAIFAALSLFASYMFSQISPSDIGKPPSLVLLLNMLDARVIAGALLGAAITYYFSGYLISAVTKAAMKMVDEIRRQAREIPGLLEGKAKPDYNRCIEITSDNALKQMGYPAFIAILTPLVTGFLLGAEFVGGVLIGTVLSGAMLAILTANSGGAWDNAKKYLEAGNLEGYGKGSEPHKALVIGDTVGDPLKDTVGPSLDILIKIMSVVSVIAVSIFKHVHLF
notes: No tag cleavage is mentioned; also called K+-dependent Na+-PPase; Na+-PPase; source: S. cerevisiae BJ1991, purified (hot-solve solubilisation, nickel-NTA; OGNG)
Consider B1, for which, in data set [1], the binding result was “binds”.

B2: K+-independent H+-pumping membrane-bound pyrophosphatase from Pyrobaculum aerophilum (PaPPase), wild type (enzyme, UniProt Q8ZWI8 1-721, looked up)
chain: MNMISYALLGVILGISGVIYAVYLAVWVLRQDPGNEKMRFISQAIATGARAYLFRQYRTLAVLLVILAVLILVAIDMPRRTFGLTALAFIVGALGSMLAGYLGMYVTTRSASRVAQAAATGGMGKALLVSWRAGAVMGLSLASIALLLISGFYLVFRSVLPDDWAVPLVALGFGASLVTLFMRVGGGIYTKAADLGADLVGKVEAGIPEDDPRNPGVIADNVGDNVGDVAGMAADVYESYIVTVTAAIFLAAILGLPTQFIEAIILFAALALVATFAGVNLLKTTGVKHPLSSISLAIYATIGLSVVLFFIGAFTLGLDSTKALALAATTSLGAVIAPLIVKITDYYTSYNYGPVRKIAEQAKISPATVIITGYGVGLMSAIPVIAVIVAVLGISYMIGYYTVPVSGFGELSKYLAGIFGTAMASVGLLVVAGIIITADSYGPVSDNAGGVVEMAGLPDEVREITDVLDSVGNTTKATTKGYAIASAALAALVLFIALIFEIVYSASKILGKGIVDMISESLSGLQLINANVLIGAFLGVALVYFFSSRTLEAVGRTAMEIVEEIRRQFREKPGILEWKEQPDYARVVDIATRRALGEFLIPGLAAIVLPLITGLLLGWNALAGLIMGAIVAGVPRALLMANAGGAWDNAKKYIEIQGLKKTEMHKAAVIGDTVGDPMKDTVGPSLNPLIKVLNTLSVVFTYVIVSTNIALGIWPSGLLPF
notes: No tag cleavage is mentioned; also called PaPPase:Mg5IDP; K+-independent H+-PPase; source: S. cerevisiae BJ1991, purified (hot-solve solubilisation, nickel-NTA; DM for crystals)
In the case of B2, the binding result in data set [2] was “binds”.
